Molecular target: GST-OPNR153A (E. coli produced mutant OPN with the arginine in the thrombin cleavage site mutated to alanine) (UniProt P10923)

Thrombin
thrombin cleavage (time course, 10 nM thrombin, SDS-PAGE): resistant to thrombin cleavage
